5 molecules from EP2348038A1, “Method for determining the activity of transglutaminase factor XIIIa” (PHILIPPS-UNIVERSITÄT MARBURG, priority 2010, dated 2011) can be followed below.

By Km is commonly meant the substrate concentration at which the rate is half of its maximum.

Peptide text beside a SMILES is read from it. * marks the point of attachment. pNA = O=[N+]([O-])c1ccc(N*)cc1; Cbz = O=C(OCc1ccccc1)*

What all share (format): biochemical
The target in one data set is T1, Faktor XIIIa (Homo sapiens, UniProt P00488).
T1 construct: Aktivierung des Zymogens FXIII zu Faktor XIIIa; purchased Aventis Behring Fibrogammin HS
T1 sequence (P00488 39-732 limits assumed): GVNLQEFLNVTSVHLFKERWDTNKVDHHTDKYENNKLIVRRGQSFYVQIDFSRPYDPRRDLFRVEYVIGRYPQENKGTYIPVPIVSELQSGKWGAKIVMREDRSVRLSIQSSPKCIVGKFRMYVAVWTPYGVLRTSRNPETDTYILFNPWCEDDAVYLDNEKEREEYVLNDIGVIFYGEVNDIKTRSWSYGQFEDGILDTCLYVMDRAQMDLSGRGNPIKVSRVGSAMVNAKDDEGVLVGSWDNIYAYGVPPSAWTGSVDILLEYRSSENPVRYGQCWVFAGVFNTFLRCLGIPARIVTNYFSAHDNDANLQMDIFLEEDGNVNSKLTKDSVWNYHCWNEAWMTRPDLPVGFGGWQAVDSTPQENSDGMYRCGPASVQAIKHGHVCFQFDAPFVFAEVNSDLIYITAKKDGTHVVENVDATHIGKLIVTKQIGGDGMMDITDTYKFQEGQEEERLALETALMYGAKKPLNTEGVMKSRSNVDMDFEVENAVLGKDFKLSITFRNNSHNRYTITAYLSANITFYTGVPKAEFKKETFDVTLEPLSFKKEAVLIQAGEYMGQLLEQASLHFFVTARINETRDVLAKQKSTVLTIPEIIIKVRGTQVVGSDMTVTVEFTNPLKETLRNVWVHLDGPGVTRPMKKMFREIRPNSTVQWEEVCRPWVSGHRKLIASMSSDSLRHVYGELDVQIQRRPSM
In words: Cleavage of AMC substrates by activated factor XIIIa, fluorescence plate reader (Michaelis-Menten kinetics). As to conditions: λEX = 380 nm, λEm = 460 nm, room temperature, enzyme ca. 0,893 Einheiten/ml. How it is done: (§1) Die Aliquotierung des Zymogens Faktor XIII und Aktivierung des Zymogens FXIII zu Faktor XIIIa erfolgten analog der in Beispiel 3 beschriebenen Prozedur.
(§2) Sämtliche Lösungen wurden bei Raumtemperatur aufbewahrt. Die Bestimmung der Spaltung der AMC-Substrate durch FXllla wurde mit einem Fluoreszenz-Plattenreader Safire^2 der Firma Tecan (λEX = 380 nm, λEm = 460 nm) bei Raumtemperatur durchgeführt. • 100 µl TBS-Puffer (siehe oben, der Puffer kann gegebenenfalls auch eine Aminkomponente enthalten, beispielsweise H-Gly-Ethylester oder H-Gly-Gly-Ethylester oder ein anderes Amin) • 50 µl Substratlösung • 25 µl Enzymlösung (im Messansatz ca. 0,893 Einheiten/ml)
(§3) Die Michaelis-Menten-Auftragung für die AMC-enthaltenden Substrate ist in Fig. 3 gezeigt.

The next data set has as its system FXIIIa. The experiment in a line: Initial cleavage tests of Glu(pNA)/Glu(AMC) derivatives with FXIIIa (background section). The note with it: release of pNA or AMC; no conditions given. The text has this: Nach derzeitigem Wissen existieren neben FXIII bzw. FXllla im Körper derzeit noch 8 weitere Transglutaminasen, dazu zählen TG1-TG7 sowie das Protein epb42, dass allerdings katalytisch unwirksam ist (Wodzinska, Mini Rev. in Med. Chem. 5 (2005) 279-292). Als erste Transglutaminase wurde das inzwischen als TG2 bezeichnete Enzym entdeckt. Dessen Aktivität lässt sich sehr einfach durch UV/VIS-spektroskopische oder fluorimetrische Messungen unter Verwendung simpler Aminosäurederiate nachweisen, beispielsweise durch Abspaltung von p-Nitroanlin aus H-Glu(pNA)-OH oder durch Abspaltung von Aminomethylcoumarin aus H-Glu(AMC)-OH (Smith et al., Anal. Biochem. 100 (1979) 136-139). […] Bisher wurden auch noch keine Peptidderivate beschrieben, die einen Glu(pNA) oder Glu(AMC)-Rest besitzen und gleichzeitig mit ausreichender Effektivität von FXllla unter Freisetzung von pNA oder AMC umgesetzt werden.

Substrate in data set [1]: CC[C@H](C)[C@H](NC(=O)[C@@H](NC(=O)[C@H](CCCCN)NC(=O)[C@@H](NC(=O)[C@H](CCC(=O)Nc1ccc([N+](=O)[O-])cc1)NC(=O)[C@@H](N)CCCCN)C(C)C)C(C)C)C(=O)NCC(N)=O
In words: Cleavage of AMC substrates by activated factor XIIIa, fluorescence plate reader (Michaelis-Menten kinetics). The note with it: other: AMC substrates; λEX = 380 nm, λEm = 460 nm, room temperature; enzyme ca. 0,893 Einheiten/ml. How it is done:
as §1, §2, §3

Substrate in data set [2]: CC[C@H](C)[C@H](NC(=O)[C@@H](NC(=O)[C@H](CCCCN)NC(=O)[C@H](CCCCNC(=O)OCc1ccccc1)NC(=O)[C@H](CCC(=O)Nc1ccc([N+](=O)[O-])cc1)NC(=O)[C@@H](N)Cc1c[nH]cn1)C(C)C)C(=O)NCC(N)=O
The data set is described as above. The note with it: other: AMC substrates; λEX = 380 nm, λEm = 460 nm, room temperature; enzyme ca. 0,893 Einheiten/ml. How it is done:
as §1, §2, §3

Substrate in data set [3]: CC[C@H](C)[C@H](NC(=O)[C@@H](NC(=O)[C@H](CCCCN)NC(=O)[C@@H](NC(=O)[C@H](CCC(=O)Nc1ccc([N+](=O)[O-])cc1)NC(=O)[C@@H](N)Cc1ccc(O)cc1)C(C)C)C(C)C)C(=O)NCC(N)=O
The experiment in a line: Cleavage of pNA substrates by activated factor XIIIa, absorbance at 405 nm (Michaelis-Menten kinetics and pre-test). The note with it: other: pNA substrates, 37 °C, enzyme ca. 1,25 Einheiten/ml, varied substrate concentration, pH 7.5. How it is done: (§4) 250 Einheiten lyophilisiertes Fibrogammin HS (Aventis Behring) wurden in 4 ml Wasser gelöst, als 100 µl Portionen aliquotiert und bei -80 °C gelagert. 100 µl dieser Lösung enthalten 6,25 Einheiten FXIII.
(§5) 100 µl des aliqotierten Fibrogammins (entspricht 6,25 Einheiten) wurden mit 500 µl TBS-Puffer (50 mM Tris-HCl, pH 7,5 in 0,9% (w/v) NaCl), 360 µl einer 0.9 % NaCl-Lösung, 10 µl einer 1 M CaCl2-Lösung und 20 µl einer Thrombinlösung (Rinderthrombin: 14,2 U in 20 µl) versetzt. Der Ansatz wurde 20 min bei 37 °C inkubiert, danach wurden 10 µl einer Lösung mit rekombinantem Hirudin zugesetzt (r-Hirudin: HBW 023 mit 13442 IU mg^-1, Stammlösung des r-Hirudin = 1 mg/ml). Dieser Aktivierungsansatz besitzt ein Gesamtvolumen von 1 ml, der aktivierte Faktor Xllla wurde bei 37 °C aufbewahrt und für die folgenden kinetischen Messungen verwendet.
(§6) Die Messungen wurden bei 405 nm und 37 °C mit einem Microplate Reader der Firma Labsystems (iEMS Reader MF) mit folgendem Messansatz durchgeführt: • 150 µl TBS-Puffer (siehe oben, der Puffer kann gegebenenfalls auch eine Aminkomponente enthalten, beispielsweise H-Gly-Ethylester oder H-Gly-Gly-Ethylester oder ein anderes Amin, falls vorhanden ist die finale Konzentration des Amins im Messansatz 2,5 mM oder höher) • 50 µl Substratlösung • 50 µl Enzymlösung (im Messansatz ca. 1,25 Einheiten/ml)
(§7) Sämtliche Lösungen wurden vor Benutzung bei 37 °C aufbewahrt, vor Zugabe der FXllla-Lösung wurde die Mikroreadermessplatte nochmals 5 min bei 37 °C im Messgerät temperiert. Nach Zugabe der FXllla-Lösung wurde die Substratspaltung gestartet und die Änderung der Absorption bei 405 nm gemessen. Für einen Vortest wurde eine konstante Substratkonzentration verwendet. […] Wir haben vermutet, dass vor allem die Aminosäuren N- und C-terminal des Glu(pNA)-Restes wichtig für die Substraterkennung sind, deshalb wurde das N-terminale Glycin und das an dritter Position befindliche Serin innerhalb der Berichromsequenz durch andere Aminosäurereste ersetzt. Durch den Vortest wurde festgestellt, dass einige dieser Substrate deutlich schneller als die Derivate S1 und S2 gespalten werden. Für ausgewählte Substrate wurden die Substratkonzentrationen im Messansatz variiert und die bestimmten Umsatzgeschwindigkeiten als Funktion der Substratkonzentration entsprechend der Michaelis-Menten-Gleichung v=Vmax·[S]/(Km+[S]) aufgetragen und somit die kinetischen Konstanten Km und Vmax bestimmt, wobei Vmax in der Einheit Absorptionsänderung bei 405 nm/s erhalten wurde. Dies ist in Fig. 1 und Fig. 2 gezeigt.

Substrate in data set [4]: CC[C@H](C)[C@H](NC(=O)[C@@H](NC(=O)[C@H](CCCNC(=N)N)NC(=O)[C@@H](NC(=O)[C@H](CCC(=O)Nc1ccc([N+](=O)[O-])cc1)NC(=O)[C@@H](N)Cc1ccc(O)cc1)C(C)C)C(C)C)C(=O)NCC(N)=O
The data set is described as above. As to conditions: other: pNA substrates, 37 °C, enzyme ca. 1,25 Einheiten/ml, varied substrate concentration, pH 7.5. How it is done: as §4, §5, §6, §7

Substrate in data set [5]: CC[C@H](C)[C@H](NC(=O)[C@H](CCC(=O)Nc1ccc([N+](=O)[O-])cc1)NC(=O)[C@@H](N)Cc1ccc(O)cc1)C(=O)N[C@@H](CCCCN)C(=O)N[C@H](C(=O)N[C@H](C(=O)NCC(N)=O)[C@@H](C)CC)C(C)C
The data set is described as above. As to conditions: other: pNA substrates, 37 °C, enzyme ca. 1,25 Einheiten/ml, varied substrate concentration, pH 7.5. How it is done:
as §4, §5, §6, §7

Substrate in data set [6]: CC[C@H](C)[C@H](NC(=O)[C@@H](NC(=O)[C@H](CCCCN)NC(=O)[C@@H](NC(=O)[C@H](CCC(=O)Nc1ccc([N+](=O)[O-])cc1)NC(=O)[C@@H](N)Cc1ccc(O)cc1)C(C)C)C(C)C)C(N)=O
The description is as above. The note with it: other: pNA substrates, 37 °C, enzyme ca. 1,25 Einheiten/ml, varied substrate concentration, pH 7.5. How it is done: as §4, §5, §6, §7

For `CC[C@H](C)[C@H](NC(=O)[C@@H](NC(=O)[C@H](CCCCN)NC(=O)[C@@H](NC(=O)[C@H](CCC(=O)Nc1ccc([N+](=O)[O-])cc1)NC(=O)[C@@H](N)CCCCN)C(C)C)C(C)C)C(=O)NCC(N)=O` [Substrat S18, H-Lys-Glu(pNA)-Val-Lys-Val-Ile-Gly-NH2] (H-KE(pNA)VKVIG-NH2), at Faktor XIIIa, the Vmax is reported as 9,61 dRFU/s.

`CC[C@H](C)[C@H](NC(=O)[C@@H](NC(=O)[C@H](CCCCN)NC(=O)[C@H](CCCCNC(=O)OCc1ccccc1)NC(=O)[C@H](CCC(=O)Nc1ccc([N+](=O)[O-])cc1)NC(=O)[C@@H](N)Cc1c[nH]cn1)C(C)C)C(=O)NCC(N)=O` [Substrat S19, H-His-Glu(pNA)-Lys(Z)-Lys-Val-Ile-Gly-NH2] (H-HE(pNA)K(Cbz)KVIG-NH2): the Vmax at Faktor XIIIa is reported as 11,99 dRFU/s.

`Cc1cc(=O)oc2cc(NC(=O)CC[C@H](N)C(=O)O)ccc12` [H-Glu(AMC)-OH]: the “Spaltung durch FXIIIa” value in the data set with FXIIIa was “nicht gespalten”.

Regarding `N[C@@H](CCC(=O)Nc1ccc([N+](=O)[O-])cc1)C(=O)O` [H-Glu(pNA)-OH], the “Spaltung durch FXIIIa” value in the data set with FXIIIa is reported as “nicht gespalten”.

B1: Faktor XIIIa (Homo sapiens) (protein)
chain: GVNLQEFLNVTSVHLFKERWDTNKVDHHTDKYENNKLIVRRGQSFYVQIDFSRPYDPRRDLFRVEYVIGRYPQENKGTYIPVPIVSELQSGKWGAKIVMREDRSVRLSIQSSPKCIVGKFRMYVAVWTPYGVLRTSRNPETDTYILFNPWCEDDAVYLDNEKEREEYVLNDIGVIFYGEVNDIKTRSWSYGQFEDGILDTCLYVMDRAQMDLSGRGNPIKVSRVGSAMVNAKDDEGVLVGSWDNIYAYGVPPSAWTGSVDILLEYRSSENPVRYGQCWVFAGVFNTFLRCLGIPARIVTNYFSAHDNDANLQMDIFLEEDGNVNSKLTKDSVWNYHCWNEAWMTRPDLPVGFGGWQAVDSTPQENSDGMYRCGPASVQAIKHGHVCFQFDAPFVFAEVNSDLIYITAKKDGTHVVENVDATHIGKLIVTKQIGGDGMMDITDTYKFQEGQEEERLALETALMYGAKKPLNTEGVMKSRSNVDMDFEVENAVLGKDFKLSITFRNNSHNRYTITAYLSANITFYTGVPKAEFKKETFDVTLEPLSFKKEAVLIQAGEYMGQLLEQASLHFFVTARINETRDVLAKQKSTVLTIPEIIIKVRGTQVVGSDMTVTVEFTNPLKETLRNVWVHLDGPGVTRPMKKMFREIRPNSTVQWEEVCRPWVSGHRKLIASMSSDSLRHVYGELDVQIQRRPSM
notes: Aktivierung des Zymogens FXIII zu Faktor XIIIa; purchased Aventis Behring Fibrogammin HS
Take B1: the Km came out at 30 µM in data set [1]; 41 µM in data set [2]; 40 µM in data set [3]; 49 µM in data set [4]; 78 µM in data set [5]; 86 µM in data set [6].
